Results from patent US20220290113.

B1: Recombinant Nme2Cas9 (Cas9 of Neisseria meningitidis strain Del1444), purified from E. coli (protein)
chain: PKKKRKVNAMAAFKPNPINYILGLDIGIASVGWAMVEIDEEENPIRLIDLGVRVFERAEVPKTGDSLAMARRLARSVRRLTRRRAHRLLRARRLLKREGVLQAADFDENGLIKSLPNTPWQLRAAALDRKLTPLEWSAVLLHLIKHRGYLSQRKNEGETADKELGALLKGVANNAHALQTGDFRTPAELALNKFEKESGHIRNQRGDYSHTFSRKDLQAELILLFEKQKEFGNPHVSGGLKEGIETLLMTQRPALSGDAVQKMLGHCTFEPAEPKAAKNTYTAERFIWLTKLNNLRILEQGSERPLTDTERATLMDEPYRKSKLTYAQARKLLGLEDTAFFKGLRYGKDNAEASTLMEMKAYHAISRALEKEGLKDKKSPLNLSSELQDEIGTAFSLFKTDEDITGRLKDRVQPEILEALLKHISFDKFVQISLKALRRIVPLMEQGKRYDEACAEIYGDHYGKKNTEEKIYLPPIPADEIRNPVVLRALSQARKVINGVVRRYGSPARIHIETAREVGKSFKDRKEIEKRQEENRKDREKAAAKFREYFPNFVGEPKSKDILKLRLYEQQHGKCLYSGKEINLVRLNEKGYVEIDHALPFSRTWDDSFNNKVLVLGSENQNKGNQTPYEYFNGKDNSREWQEFKARVETSRFPRSKKQRILLQKFDEDGFKECNLNDTRYVNRFLCQFVADHILLTGKGKRRVFASNGQITNLLRGFWGLRKVRAENDRHHALDAVVVACSTVAMQQKITRFVRYKEMNAFDGKTIDKETGKVLHQKTHFPQPWEFFAQEVMIRVFGKPDGKPEFEEADTPEKLRTLLAEKLSSRPEAVHEYVTPLFVSRAPNRKMSGAHKDTLRSAKRFVKHNEKISVKRVWLTEIKLADLENMVNYKNGREIELYEALKARLEAYGGNAKQAFDPKDNPFYKKGGQLVKAVRVEKTQESGVLLNKKNAYTIADNGDMVRVDVFCKVDKKGKNQYFIVPIYAWQVAENILPDIDCKGYRIDDSYTFCFSLHKYDLIAFQKDEKSKVEFAYYINCDSSNGRFYLAWHDKGSKEQQFRISTQNLVLIQKYQVNELGKEIRPCRLKKRPPVRGGGGSGGGGSGGGGSPAAKKKKLDGGGSKRPAATKKAGQAKKKK
B2: Nme1Cas9 (Cas9 of Neisseria meningitidis strain 8013), recombinant, purified from E. coli (protein)
chain: MAAFKPNSINYILGLDIGIASVGWAMVEIDEEENPIRLIDLGVRVFERAEVPKTGDSLAMARRLARSVRRLTRRRAHRLLRTRRLLKREGVLQAANFDENGLIKSLPNTPWQLRAAALDRKLTPLEWSAVLLHLIKHRGYLSQRKNEGETADKELGALLKGVAGNAHALQTGDFRTPAELALNKFEKESGHIRNQRSDYSHTFSRKDLQAELILLFEKQKEFGNPHVSGGLKEGIETLLMTQRPALSGDAVQKMLGHCTFEPAEPKAAKNTYTAERFIWLTKLNNLRILEQGSERPLTDTERATLMDEPYRKSKLTYAQARKLLGLEDTAFFKGLRYGKDNAEASTLMEMKAYHAISRALEKEGLKDKKSPLNLSPELQDEIGTAFSLFKTDEDITGRLKDRIQPEILEALLKHISFDKFVQISLKALRRIVPLMEQGKRYDEACAEIYGDHYGKKNTEEKIYLPPIPADEIRNPVVLRALSQARKVINGVVRRYGSPARIHIETAREVGKSFKDRKEIEKRQEENRKDREKAAAKFREYFPNFVGEPKSKDILKLRLYEQQHGKCLYSGKEINLGRLNEKGYVEIDHALPFSRTWDDSFNNKVLVLGSENQNKGNQTPYEYFNGKDNSREWQEFKARVETSRFPRSKKQRILLQKFDEDGFKERNLNDTRYVNRFLCQFVADRMRLTGKGKKRVFASNGQITNLLRGFWGLRKVRAENDRHHALDAVVVACSTVAMQQKITRFVRYKEMNAFDGKTIDKETGEVLHQKTHFPQPWEFFAQEVMIRVFGKPDGKPEFEEADTLEKLRTLLAEKLSSRPEAVHEYVTPLFVSRAPNRKMSGQGHMETVKSAKRLDEGVSVLRVPLTQLKLKDLEKMVNREREPKLYEALKARLEAHKDDPAKAFAEPFYKYDKAGNRTQQVKAVRVEQVQKTGVWVRNHNGIADNATMVRVDVFEKGDKYYLVPIYSWQVAKGILPDRAVVQGKDEEDWQLIDDSFNFKFSLHPNDLVEVITKKARMFGYFASCHRGTGNINIRIHDLDHKIGKNGILEGIGVKTALSFQKYQIDELGKEIRPCRLKKRPPVR
B3: Nme1Cas9-Nme2Cas9PID chimera (Nme1Cas9 with its PID replaced by that of Nme2Cas9) (protein)
chain: MAAFKPNSINYILGLDIGIASVGWAMVEIDEEENPIRLIDLGVRVFERAEVPKTGDSLAMARRLARSVRRLTRRRAHRLLRTRRLLKREGVLQAANFDENGLIKSLPNTPWQLRAAALDRKLTPLEWSAVLLHLIKHRGYLSQRKNEGETADKELGALLKGVAGNAHALQTGDFRTPAELALNKFEKESGHIRNQRSDYSHTFSRKDLQAELILLFEKQKEFGNPHVSGGLKEGIETLLMTQRPALSGDAVQKMLGHCTFEPAEPKAAKNTYTAERFIWLTKLNNLRILEQGSERPLTDTERATLMDEPYRKSKLTYAQARKLLGLEDTAFFKGLRYGKDNAEASTLMEMKAYHAISRALEKEGLKDKKSPLNLSPELQDEIGTAFSLFKTDEDITGRLKDRIQPEILEALLKHISFDKFVQISLKALRRIVPLMEQGKRYDEACAEIYGDHYGKKNTEEKIYLPPIPADEIRNPVVLRALSQARKVINGVVRRYGSPARIHIETAREVGKSFKDRKEIEKRQEENRKDREKAAAKFREYFPNFVGEPKSKDILKLRLYEQQHGKCLYSGKEINLGRLNEKGYVEIDHALPFSRTWDDSFNNKVLVLGSENQNKGNQTPYEYFNGKDNSREWQEFKARVETSRFPRSKKQRILLQKFDEDGFKERNLNDTRYVNRFLCQFVADRMRLTGKGKKRVFASNGQITNLLRGFWGLRKVRAENDRHHALDAVVVACSTVAMQQKITRFVRYKEMNAFDGKTIDKETGEVLHQKTHFPQPWEFFAQEVMIRVFGKPDGKPEFEEADTLEKLRTLLAEKLSSRPEAVHEYVTPLFVSRAPNRKMSGAHKDTLRSAKRFVKHNEKISVKRVWLTEIKLADLENMVNYKNGREIELYEALKARLEAYGGNAKQAFDPKDNPFYKKGGQLVKAVRVEKTQESGVLLNKKNAYTIADNGDMVRVDVFCKVDKKGKNQYFIVPIYAWQVAENILPDIDCKGYRIDDSYTFCFSLHKYDLIAFQKDEKSKVEFAYYINCDSSNGRFYLAWHDKGSKEQQFRISTQNLVLIQKYQVNELGKEIRPCRLKKRPPVR

Tests used:
[1] = target: AcrIIC3Nme
[2] = target: AcrIIC2Nme
[3] = target: AcrIIC4Hpa
[4] = target: AcrIIC5Smu
[5] = target: AcrIIC1Nme
[6] = target: AcrE2

| Protein | in vitro DNA cleavage by Cas9 in the presence of Acr (10:1 Acr:Cas9 molar ratio) [1] | in vitro DNA cleavage by Cas9 in the presence of Acr (10:1 Acr:Cas9 molar ratio) [2] | in vitro DNA cleavage by Cas9 in the presence of Acr (10:1 Acr:Cas9 molar ratio) [3] | in vitro DNA cleavage by Cas9 in the presence of Acr (10:1 Acr:Cas9 molar ratio) [4] | in vitro DNA cleavage by Cas9 in the presence of Acr (10:1 Acr:Cas9 molar ratio) [5] | in vitro DNA cleavage by Cas9 in the presence of Acr (10:1 Acr:Cas9 molar ratio) [6] | in vitro DNA cleavage by the Nme1Cas9-Nme2Cas9PID chimera in the presence of Acr (10 uM Cas9-sgRNA + 100 uM Acr) [4] |
| --- | --- | --- | --- | --- | --- | --- | --- |
| B1 | completely inhibited Nme2Cas9 | completely inhibited Nme2Cas9 | completely inhibited Nme2Cas9 | did not inhibit Nme2Cas9 in vitro even at a 10-fold molar excess | completely inhibited Nme2Cas9 |  |  |
| B2 | all 5 families inhibited Nme1Cas9 | all 5 families inhibited Nme1Cas9 | all 5 families inhibited Nme1Cas9 | all 5 families inhibited Nme1Cas9 | all 5 families inhibited Nme1Cas9 | AcrE2 failed to do so |  |
| B3 |  |  |  |  |  |  | No inhibition was observed by AcrIIC5Smu on this protein chimera |
